Assay [1] has as its target T1, human CD73 protein (ACRO Biosystems, Cat No. CD3-H52H7) (human, UniProt P21589 27-547).
T1 construct: Bought protein; also called recombinant CD73 protein; recombinant CD73
T1 sequence: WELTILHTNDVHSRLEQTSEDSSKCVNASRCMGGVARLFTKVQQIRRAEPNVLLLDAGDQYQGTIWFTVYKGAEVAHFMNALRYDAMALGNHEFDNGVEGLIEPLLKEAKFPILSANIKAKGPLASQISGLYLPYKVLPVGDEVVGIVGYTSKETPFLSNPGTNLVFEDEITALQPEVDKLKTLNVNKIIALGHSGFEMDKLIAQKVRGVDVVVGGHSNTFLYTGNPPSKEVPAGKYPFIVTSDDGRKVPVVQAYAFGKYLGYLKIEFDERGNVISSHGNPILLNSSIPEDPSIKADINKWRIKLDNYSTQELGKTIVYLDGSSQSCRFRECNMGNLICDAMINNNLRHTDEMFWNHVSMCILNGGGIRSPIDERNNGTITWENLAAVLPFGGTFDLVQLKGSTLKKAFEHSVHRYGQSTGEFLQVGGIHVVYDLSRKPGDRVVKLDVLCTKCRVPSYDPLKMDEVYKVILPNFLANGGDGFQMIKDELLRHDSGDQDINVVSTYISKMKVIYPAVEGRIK
Briefly: SPR (Biacore T200), antibody captured on protein A chip, CD73 as analyte, 1:1 model. The protocol: The temperatures of the sample chamber and flow path were set at 25° C. The protein A chips separately captured the antigen-binding proteins as ligands, which were immobilized at about 100 RU. […] Ten mM Glycine, pH 1.5, was regenerated for 60 s at a flow rate of 50 μL/min for multiple cycle kinetic detection. The binding rate constant (ka), dissociation rate constant (kd) and dissociation equilibrium rate constant (KD) were fitted using the Fit local mode of a 1:1 binding model.
In general terms: Surface plasmon resonance follows binding to a sensor surface in real time, without labels.

In assay [2] the target is T2, human CD73 on the cell surface (human, UniProt P21589 27-549).
T2 sequence: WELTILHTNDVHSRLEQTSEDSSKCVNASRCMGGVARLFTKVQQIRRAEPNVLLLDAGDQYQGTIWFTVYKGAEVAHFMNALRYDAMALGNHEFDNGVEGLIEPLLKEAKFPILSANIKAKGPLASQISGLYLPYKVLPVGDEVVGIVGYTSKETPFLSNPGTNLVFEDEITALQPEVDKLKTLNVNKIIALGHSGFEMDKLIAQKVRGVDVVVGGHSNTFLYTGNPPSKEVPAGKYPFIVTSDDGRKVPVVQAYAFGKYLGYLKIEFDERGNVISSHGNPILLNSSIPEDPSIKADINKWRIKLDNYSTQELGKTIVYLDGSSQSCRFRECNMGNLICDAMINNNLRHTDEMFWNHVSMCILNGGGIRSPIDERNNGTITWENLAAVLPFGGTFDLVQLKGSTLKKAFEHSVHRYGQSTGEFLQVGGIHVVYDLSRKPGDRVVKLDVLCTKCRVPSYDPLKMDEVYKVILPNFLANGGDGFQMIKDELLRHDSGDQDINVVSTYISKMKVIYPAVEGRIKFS
The assay is described as follows: cell-based or functional assay.

Assay [3] deals with T2, human CD73 on the cell surface. The assay is described as follows: cell-based or functional assay. This is another data set of the same source.
The target of assay [4] is T3, rat CD73 (Novoprotein, Cat No. CB16) (rat, UniProt P21588 29-551, limits assumed).
T3 construct: Bought protein
T3 sequence (looked up): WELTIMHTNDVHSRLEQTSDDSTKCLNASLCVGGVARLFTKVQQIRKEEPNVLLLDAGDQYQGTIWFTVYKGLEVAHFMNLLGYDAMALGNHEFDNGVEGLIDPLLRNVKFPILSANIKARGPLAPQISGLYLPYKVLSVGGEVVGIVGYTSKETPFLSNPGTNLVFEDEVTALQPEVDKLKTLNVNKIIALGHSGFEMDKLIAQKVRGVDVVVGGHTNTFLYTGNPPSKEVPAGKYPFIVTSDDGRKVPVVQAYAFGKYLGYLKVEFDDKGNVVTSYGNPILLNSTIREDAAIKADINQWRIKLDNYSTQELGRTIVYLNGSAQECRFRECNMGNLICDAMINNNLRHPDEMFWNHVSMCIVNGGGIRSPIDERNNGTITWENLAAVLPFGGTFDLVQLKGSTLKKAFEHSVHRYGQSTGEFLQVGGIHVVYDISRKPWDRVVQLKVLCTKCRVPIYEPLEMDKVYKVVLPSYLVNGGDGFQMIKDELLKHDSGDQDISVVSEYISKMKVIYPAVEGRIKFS
Briefly: SPR (Biacore T200), antibody captured on protein A chip. The protocol:
(§1) The temperatures of the sample chamber and flow path were set at 25° C. The protein A chips separately captured the antigen-binding proteins as ligands, which were immobilized at about 100 RU. […] Ten mM Glycine, pH 1.5, was regenerated for 60 s at a flow rate of […] for multiple cycle kinetic detection. The binding rate constant (ka), dissociation rate constant (kd) and dissociation equilibrium rate constant (KD) were fitted using the Fit local mode of a 1:1 binding model.

For assay [5], the target named is T4, mouse CD73/NT5E (ACRO Biosystems, Cat No. CD3-M52H9) (mouse, UniProt Q61503 29-551).
T4 construct: Bought protein
T4 sequence (looked up): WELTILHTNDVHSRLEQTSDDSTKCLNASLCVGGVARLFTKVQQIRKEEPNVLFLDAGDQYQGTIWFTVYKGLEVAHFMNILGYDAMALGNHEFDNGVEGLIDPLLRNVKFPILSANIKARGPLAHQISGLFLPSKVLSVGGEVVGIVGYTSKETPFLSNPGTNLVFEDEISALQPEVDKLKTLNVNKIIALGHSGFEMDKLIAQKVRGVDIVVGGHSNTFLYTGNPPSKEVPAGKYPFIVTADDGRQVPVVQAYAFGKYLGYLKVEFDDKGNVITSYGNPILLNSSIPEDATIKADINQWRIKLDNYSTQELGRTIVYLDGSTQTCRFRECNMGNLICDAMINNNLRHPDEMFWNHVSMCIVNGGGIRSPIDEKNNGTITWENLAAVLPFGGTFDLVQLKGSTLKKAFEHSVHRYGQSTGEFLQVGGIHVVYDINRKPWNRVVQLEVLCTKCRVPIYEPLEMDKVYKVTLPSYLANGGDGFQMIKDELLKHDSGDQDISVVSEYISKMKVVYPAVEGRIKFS
The assay is described as above. The protocol: as §1

The target of assay [6] is T1, human CD73 protein (ACRO Biosystems, …). Briefly: cell-based or functional assay.

Five molecules from US20240026024A1 (SHANGHAI HUAOTA BIOPHARMACEUTICAL, published 2024) can be followed below.

B1: 900581 (antibody, human IgG1, V domains shown)
VH: EVQLVESGGGLVKPGGSLKLSCAASGFTFSKYAMSWVRQSPEKRLEWVAEISSGGGYINYPDTVTGRFTISRDNAKNTLYLEMSSLRSGDTAMYYCARAIYYYGSSYNYYAMDYWGQGTSVTVSS
VL: DIVMTQSHKFMSTSVGDRVSITCKASQDVGTAEAWYQQKPGQSPKLLIYWASTRHTGVPDRFTGSGSGTDFTLTIGNVQSEDLADYFCQQYSSYPLTFGGGTKLEIK
As for B1, in assay [1], binding was put at a Kd of 1.65 nM, the koff was 0.000439 s⁻¹ and the kon amounted to 267000 M⁻¹ s⁻¹. In assay [2], the “EC50(µg/mL), inhibition of enzyme activity of CD73 on CHOK1-huCD73-3F4 cells” value was 1.85 µg/mL. In assay [3], the “Endocytosis efficiency (%)” value came to 78.8%. Further, in assay [4], the binding result is recorded as “no binding (tested: up to 50 nM analyte)”. Further, the binding result in assay [5] is recorded as “no binding (tested: up to 50 nM analyte)”. In addition, the “EC50(µg/mL), inhibition of recombinant CD73 (CellTiter-Glo)” value (shortened to “EC50(µg/mL), inhibition … (CellTiter-Glo)”) in assay [6] was found to be 0.262 µg/mL.

B2: 900695 (antibody, V domains shown)
VH: QVQLVESGGGLVKPGGSLRLSCAASGFTFSKYAMSWVRQAPGKGLEWVAEISSGGGYINYADSVTGRFTISRDNAKNSLYLQMNSLRAEDTAVYYCARAIYYYGSSYNYYAMDYWGQGTTVTVSS
VL: DIQMTQSPSSLSASVGDRVTITCRASQDVGTAEAWYQQKPGKAPKLLIYWASTRHTGVPSRFSGSGSGTDFTLTISSLQPEDFATYYCQQYSSYPLTFGQGTKLEIK
notes: Constant regions are not restated
For B2, in assay [1], the Kd is 2.04 nM, the off-rate (koff) was determined as 6.03e-05 s⁻¹ and the kon was found to be 29500 M⁻¹ s⁻¹. In addition, in assay [4], the binding result was “no binding (tested: up to 50 nM analyte)”. Moreover, the binding result in assay [5] is “no binding (tested: up to 50 nM analyte)”. In addition, the “EC50(µg/mL), inhibition … (CellTiter-Glo)” value in assay [6] came out at 0.746 µg/mL.

B3: 900696 (antibody, V domains shown)
VH: QVQLVESGGGLVKPGGSLRLSCAASGFTFSKYAMSWIRQAPGKGLEWVAEISSGGGYINYADSVKGRFTISRDNAKNSLYLQMNSLRAEDTAVYYCARAIYYYGSSYNYYAMDYWGQGTTVTVSS
VL: DIQMTQSPSSLSASVGDRVTITCRASQDVGTAEAWYQQKPGKAPKLLIYWASTLQSGVPSRFSGSGSGTDFTLTISSLQPEDFATYYCQQYSSYPLTFGQGTKLEIK
notes: as for B2
In assay [1], B3 yielded an equilibrium dissociation constant (Kd) of 4.23 nM, a koff of 0.000928 s⁻¹ and a kon of 219000 M⁻¹ s⁻¹. For the same molecule, the binding result in assay [4] was “no binding (tested: up to 50 nM analyte)”. In assay [5], the binding result is given as “no binding (tested: up to 50 nM analyte)”. In addition, in assay [6], the “EC50(µg/mL), inhibition … (CellTiter-Glo)” value stood at 0.751 µg/mL.

B4: 900697 (antibody, V domains shown)
VH: QVQLVESGGGLVKPGGSLRLSCAASGFTFSKYAMSWVRQAPGKGLEWVAEISSGGGYINYADSVTGRFTISRDNAKNSLYLQMNSLRAEDTAVYYCARAIYYYGSSYNYYAMDYWGQGTTVTVSS
VL: DIQMTQSPSSLSASVGDRVTITCRASQDVGTAEAWYQQKPGKAPKLLIYWASTLQSGVPSRFSGSGSGTDFTLTISSLQPEDFATYYCQQYSSYPLTFGQGTKLEIK
notes: as for B2
In assay [1], B4 displayed a Kd of 1.29 nM, a koff of 0.000492 s⁻¹ and a kon of 380000 M⁻¹ s⁻¹. Further, the “EC50(µg/mL), inhibition of enzyme activity of CD73 on CHOK1-huCD73-3F4 cells” value in assay [2] was 1.97 µg/mL. In addition, in assay [3], the “Endocytosis efficiency (%)” value is 98.2%. The binding result in assay [4] is on record as “no binding (tested: up to 50 nM analyte)”. Besides, the binding result in assay [5] is reported as “no binding (tested: up to 50 nM analyte)”. Moreover, the “EC50(µg/mL), inhibition … (CellTiter-Glo)” value in assay [6] turned out to be 0.585 µg/mL.

B5: 900698 (antibody, V domains shown)
VH: QVQLVESGGGLVKPGGSLRLSCAASGFTFSKYAMSWIRQAPGKGLEWVAEISSGGGYINYADSVKGRFTISRDNAKNSLYLQMNSLRAEDTAVYYCARAIYYYGSSYNYYAMDYWGQGTTVTVSS
VL: DIQMTQSPSSLSASVGDRVTITCRASQDVGTAEAWYQQKPGKAPKLLIYWASTRHTGVPSRFSGSGSGTDFTLTISSLQPEDFATYYCQQYSSYPLTFGQGTKLEIK
notes: as for B2
In assay [1], B5 displayed a Kd of 3.12 nM, a dissociation rate constant (koff) of 0.00106 s⁻¹ and a kon of 339000 M⁻¹ s⁻¹. Further, the “EC50(µg/mL), inhibition of enzyme activity of CD73 on CHOK1-huCD73-3F4 cells” value in assay [2] was 1.43 µg/mL. Further, the “Endocytosis efficiency (%)” value in assay [3] stood at 96.3%. For the same molecule, in assay [4], the binding result was “no binding (tested: up to 50 nM analyte)”. Besides, the binding result in assay [5] is “no binding (tested: up to 50 nM analyte)”. For the same molecule, the “EC50(µg/mL), inhibition … (CellTiter-Glo)” value in assay [6] was found to be 0.588 µg/mL.

Broadly, the Kd is the free concentration of one partner at which half of the binding sites on the other are occupied at equilibrium, for simple one-to-one binding. A lower Kd goes with higher affinity. As usually defined, the koff is a measure of how fast the partners let go of each other. Low readings indicate slow dissociation, high ones fast dissociation. By kon is commonly meant the second-order rate constant of association. A higher kon goes with faster complex formation.
